Reference: PMC2658612 (Cell host & microbe, 2008)

Target: T1, SifA (1–330), as in the calorimetry and the crystal (S. typhimurium, UniProt Q56061 1-330)
T1 sequence: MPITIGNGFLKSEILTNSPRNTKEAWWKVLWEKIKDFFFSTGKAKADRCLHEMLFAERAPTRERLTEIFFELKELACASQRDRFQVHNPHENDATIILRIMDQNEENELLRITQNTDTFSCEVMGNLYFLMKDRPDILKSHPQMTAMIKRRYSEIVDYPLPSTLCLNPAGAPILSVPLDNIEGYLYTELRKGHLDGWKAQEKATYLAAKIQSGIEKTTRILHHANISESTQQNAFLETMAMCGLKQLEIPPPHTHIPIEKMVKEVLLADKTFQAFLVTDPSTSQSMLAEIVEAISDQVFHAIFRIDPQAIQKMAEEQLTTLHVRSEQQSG
Experiment: ITC

B1: PH domain (PHD) of SKIP (774–883), as in the calorimetry and the crystal (domain or fragment, UniProt Q8IWE5 774-883, looked up)
chain: KEGMLHYKAGTSYLGKEHWKTCFVVLSNGILYQYPDRTDVIPLLSVNMGGEQCGGCRRANTTDRPHAFQVILSDRPCLELSAESEAEMAEWMQHLCQAVSKGVIPQGVAP
Kd: 2.58 µM
